Measured values as given in paper PMC3821859, “Role of the Acidic Tail of High Mobility Group Protein B1 (HMGB1) in Protein Stability and DNA Bending”.

Assays:
HMGB1ΔC = HMGB1ΔC (Homo sapiens, UniProt P09429 1-185, del186-215); experiment: fluorescence anisotropy; 50 nM DNA; sigmoidal dose-response fit; 10 mM Tris-HCl pH 7.5, 50 mM NaCl, 0.5 mM DTT, 0.1 mM EDTA, 5% glycerol; 25 °C (anisotropy); details: protein: recombinant; tags: N-terminal 6xHis with TEV site, not removed; label: 5'-6-FAM on complementary strand; blunt
HMGB1 = HMGB1 (Homo sapiens, UniProt P09429 1-215); experiment: as above; details: protein: recombinant; tags: N-terminal 6xHis with TEV site, not removed; label: 5'-6-FAM on complementary strand; blunt
HMGB1, sequence (P09429 whole entry): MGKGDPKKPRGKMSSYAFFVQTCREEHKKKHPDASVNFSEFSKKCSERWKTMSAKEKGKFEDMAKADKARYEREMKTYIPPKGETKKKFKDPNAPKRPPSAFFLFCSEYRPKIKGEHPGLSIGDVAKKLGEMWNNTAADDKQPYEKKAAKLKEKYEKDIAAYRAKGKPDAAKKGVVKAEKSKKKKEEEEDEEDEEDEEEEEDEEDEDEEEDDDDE

HMGB1ΔC, sequence (P09429 1-185, stated change not applied): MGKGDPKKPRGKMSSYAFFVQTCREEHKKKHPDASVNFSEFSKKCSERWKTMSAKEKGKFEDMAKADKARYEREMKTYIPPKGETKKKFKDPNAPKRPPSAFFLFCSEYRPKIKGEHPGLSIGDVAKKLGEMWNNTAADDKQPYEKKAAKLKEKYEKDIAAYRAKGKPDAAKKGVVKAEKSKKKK

B1: 20-bp dsDNA, 6-FAM (dsDNA)
DNA 1: TACTGTATGAGCATACAGTA
DNA 2: TACTGTATGCTCATACAGTA
- Kd (HMGB1ΔC): 72 ± 4 nM
- Kd (HMGB1): 88 ± 5 nM
